Measured values: patent US20130058921A1 (published 2013)

Target: CS1 (human, UniProt Q9NQ25 23-335)
Assay: cell-based or functional assay

B1: elotuzumab (antibody, V domains shown)
VH: EVQLVESGGGLVQPGGSLRLSCAASGFDFSRYWMSWVRQAPGKGLEWIGEINPDSSTINYAPSLKDKFIISRDNAKNSLYLQMNSLRAEDTAVYYCARPDGNYWYFDVWGQGTLVTVSS
VL: DIQMTQSPSSLSASVGDRVTITCKASQDVGIAVAWYQQKPGKVPKLLIYWASTRHTGVPDRFSGSGSGTDFTLTISSLQPEDVATYYCQQYSSYPYTFGQGTKVEIK
expanded autologous NK cell-mediated killing of multiple myeloma cells (51Cr release assay): ≥ 1.7 fold
